According to patent CN112794909A (GUANGZHOU EXCELMAB BIOMEDICAL TECH CO LTD, dated 2021):

T1: 重组人TIGIT蛋白抗原 (human, UniProt Q495A1 21-141, limits assumed)
T1 construct: Made as TIGIT-Fc in 293F, cut with TEV protease and purified; also called TIGIT抗原; 人TIGIT抗原
T1 sequence (looked up): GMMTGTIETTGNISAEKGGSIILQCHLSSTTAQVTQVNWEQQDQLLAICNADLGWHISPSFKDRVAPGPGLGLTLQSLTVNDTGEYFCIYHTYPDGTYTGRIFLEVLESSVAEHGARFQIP

T2: CTLA4抗原 (UniProt P16410 36-161, limits assumed)
T2 sequence (looked up): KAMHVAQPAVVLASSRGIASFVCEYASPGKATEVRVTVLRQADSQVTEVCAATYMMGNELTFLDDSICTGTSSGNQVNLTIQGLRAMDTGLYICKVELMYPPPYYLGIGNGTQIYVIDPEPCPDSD

T3: LAG-3抗原 (UniProt P18627 23-450, limits assumed)
T3 sequence (looked up): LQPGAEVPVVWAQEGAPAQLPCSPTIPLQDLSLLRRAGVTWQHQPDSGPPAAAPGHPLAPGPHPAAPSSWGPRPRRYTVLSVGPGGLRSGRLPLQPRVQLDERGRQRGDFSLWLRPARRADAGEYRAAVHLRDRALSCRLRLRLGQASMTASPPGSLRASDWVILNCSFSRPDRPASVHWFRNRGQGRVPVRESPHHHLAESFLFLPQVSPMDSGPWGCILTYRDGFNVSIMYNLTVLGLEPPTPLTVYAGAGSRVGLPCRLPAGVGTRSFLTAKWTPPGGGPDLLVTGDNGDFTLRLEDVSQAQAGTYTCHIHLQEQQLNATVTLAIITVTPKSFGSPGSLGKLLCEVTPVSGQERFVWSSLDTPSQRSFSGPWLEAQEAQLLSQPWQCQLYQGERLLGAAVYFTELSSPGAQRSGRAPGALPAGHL

B1: 鼠源抗TIGIT单链抗体mT251 (mT251 scFv-Fc重组蛋白) (scFv, V domains shown)
VH: DVKLKESGPSLVKPSQTLSLTCSVTGDSITSGFWNWIRKFPGNKLEYMGYISYSGSSYYNPSLKSRISITRDTSKNQYYLQLNSVTTEDTATYYCAAGDFGNYGYAMDNWGQGTSVTVSS
VL: DVLMTQSHKFMSTSVGDRVSITCKASQRVTTAVAWYQQKPGQSPKLLIYSASYRYTGVPDRFTGSGSGTDFTFTITSVQPEDLAIYYCQQYYSTPLTFGAGTKLEIK
B2: 人源化抗体hmT251 (antibody, V domains shown)
VH: DVRLKESGPGLVKPSQTLSLTCTVSGGSITSGFWNWIRKHPGNGLEYIGYISYSGSSYYNPSLKSRVTISRDTSKNQYSLKLSSVTAADTAVYYCAAGDFGNYGYAMDVWGQGTTVTVSS
VL: DVQMTQSPSSLSASVGDRVTITCKASQRVTTAVAWYQQKPGKSPKLLIYSASYRYTGVPDRFTGSGSGTDFTLTISSLQPEDFATYYCQQYYSTPLTFGGGTKVEIK
notes: also called 人源化抗TIGIT抗体hmT251; 人源化单链抗体hmT251

Tests used:
重组人TIGIT蛋白抗原 [1] = target: T1, 重组人TIGIT蛋白抗原; assay: ELISA, TIGIT antigen coated, HRP anti-human IgG
重组人TIGIT蛋白抗原 [2] = target: T1, 重组人TIGIT蛋白抗原; assay: ELISA, TIGIT antigen coated
PD-L1抗原 = PD-L1抗原 (UniProt Q9NZQ7 19-238, limits assumed); assay: ELISA, antigen coated
Sequence of PD-L1抗原 (Q9NZQ7 19-238 limits assumed): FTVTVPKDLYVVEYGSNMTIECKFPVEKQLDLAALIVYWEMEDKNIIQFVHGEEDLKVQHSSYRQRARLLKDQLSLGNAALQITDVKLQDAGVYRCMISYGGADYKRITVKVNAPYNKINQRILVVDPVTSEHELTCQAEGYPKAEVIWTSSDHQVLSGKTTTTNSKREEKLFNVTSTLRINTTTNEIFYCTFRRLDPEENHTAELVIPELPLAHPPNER

CTLA4抗原 = target: T2, CTLA4抗原; assay: ELISA, antigen coated
LAG-3抗原 = target: T3, LAG-3抗原; assay: ELISA, antigen coated
PD-1抗原 = PD-1抗原 (UniProt Q15116 25-167, limits assumed); assay: ELISA, antigen coated
Sequence of PD-1抗原 (Q15116 25-167 limits assumed): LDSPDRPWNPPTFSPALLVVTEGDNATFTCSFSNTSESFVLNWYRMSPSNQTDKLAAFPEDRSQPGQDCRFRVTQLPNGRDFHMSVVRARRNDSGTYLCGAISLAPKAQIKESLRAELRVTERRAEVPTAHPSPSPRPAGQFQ

重组人TIGIT蛋白抗原 [3] = target: T1, 重组人TIGIT蛋白抗原; assay: ELISA, human TIGIT antigen coated

Row | Binder | EC50 (重组人TIGIT蛋白抗原 [1]) | EC50 (重组人TIGIT蛋白抗原 [2]) | binding result (PD-L1抗原) | binding result (CTLA4抗原) | binding result (LAG-3抗原) | binding result (PD-1抗原) | EC50 (重组人TIGIT蛋白抗原 [3])
1 | B1 | 0.125 µg/mL | 0.099 µg/mL | – | – | – | – | –
2 | B2 | – | 0.0741 µg/mL | no binding | no binding | no binding | no binding | 0.155 µg/mL
